Laboratory results taken from doi:10.1101/2024.03.15.585200.

Molecular target: Toxoplasma gondii ABCB7 homolog (TGGT1_269000) (Toxoplasma gondii)
Test: native gel or EMSA

Substance: Toxoplasma gondii ABCB7 homolog (TGGT1_269000) (natural protein)
- stoichiometry N: 2
